The RNAGym collection of RNA variant scans (doi:10.7554/elife.90254)

B1: LINE1-full (parent)
chain: UACGUAGGUGGUUUUCCCCUGAUAGUGCUAAGGGGGCCUGGAAGUUUGGACUGGGCAGAGCUCAACACAGCGUGGCAAAGUGGCUGUGGCUAGACUGCCUCUCUGGAUUCCUCGUCACUCAGCAGGGCAUCUCUGAGAGAAAUGCC

Variants of: B1
Test: self-cleavage, relative activity (ratio to wild type); higher = more cleavage; in vitro, sequencing; the parent is a self-cleaving ribozyme

Variant	self-cleavage
U47C U62C	0.12
U39G U73A	1.88
U9C A78G	1.19
A78U U81C	1.6
U104A U132C	1.08
A43G A136U	1.5
A43G A136C	1.18
C63A A77G	0.04
G35U A50U	0.57
U1C C68U	0.13
G33U G126C	1.21
U46A A142G	1.45
C84G U100C	0.07
C3U U39C	0.79
U39C C133U	1.31
U9A U104C	1.17
A79C U108C	2.12
U47C U119A	1.86
A59U G126A	0.59
U29C A31G	1.14
A31G U143C	1.04
A42U U45C	1.4
C38U A142G	1.4
U15C A22G	1.24

Variant	self-cleavage
U73C A136U	1.76
A64G A94G	0.06
U96G U108C	0.13
U81A C120U	0.99
A78G A92U	0.64
G86A A117G	0.09
U62C G139A	0.03
A142G C146U	1.49
A79G U130G	2.51
A77G G114A	2.27
U73C A141U	1.53
A67G A78G	0.27
U14C C51G	1.84
G105A U108C	1.56
U52C G83A	0.53
U73G A92G	0.36
G126A A129U	2.47
U13C G97A	0.08
G10A A50U	1.32
A64G G72A	0.19
C19U A31U	1.35
U46C G125U	0.8
A92G A129G	0
A77G U119A	2.04

Variant	self-cleavage
G44A A50U	0.94
A42G C131A	1.23
U5C U23C	0.83
G4U C110A	1.56
A69U A121G	0.05
U96C U143C	0.14
U26C A31C	1.23
U5C U62A	0
C98U C146U	0.32
G35A A78G	0.9
A43G U109C	1.92
U15C U102C	1.46
U23A U96A	0.08
G27A	1.07
U45C C56U	0.12
U13A U20A	1.15
U87A C146U	0.09
C68U U108A	0.2
G53U U134A	0.68
G72A U102A	1.66
G58A A140G	0.04
G114A	1.17
U112C U143G	1.81
A50G U108C	1.2

Variant	self-cleavage
A6G U26A	0.68
G11A G60A	0.01
U39C U104G	0.93
A64G C131U	0.33
U73C C131G	1.73
C76U U143C	2.01
A42G G55A	0.29
U9C G89C	0.05
U47C C113A	1.78
A24G U115A	1.45
A94G U143C	0.43
G54U A121G	0.97
A79G A141G	1.35
G114A G125U	1.49
U23A U73C	1.24
U73G A107U	1.59
A69U C120U	0.07
G48U U81A	1.8
U9A A94G	0.27
U85A U134A	0.06
U9A C90A	0.04
U15C U46C	1.31
U9A G80A	1.92
U45A C95U	0.18

Variant	self-cleavage
U9C A69G	0.83
U20G U134C	0.64
G106A U143C	1.51
G36C A94G	0.32
G60A A94C	0.01
U46A U104A	0.9
U5C C18A	0.67
U39C U119G	1.36
U15A U102C	1.15
A31U U62C	0.12
G53A C61U	0.03
U62C A78U	0.04
U62C A78C	0
C63A U87A	0.04
A67G A79C	0.48
U115C U134C	1.61
A94G G114A	0.23
A31U U73A	1.33
U81C A94U	0.37
U13A A140G	0.52
U20C C66U	0
C28U A141U	0.54
A43U U109C	1.32
G86A A124C	0.03

Variant	self-cleavage
G89A U130C	0.02
U73A U91A	0.72
G27U A67G	0.28
U12C G105A	1.54
U45A C71U	0.08
U46C A77C	1.01
C38A U96G	0.1
A121G C145A	1.6
A69U U87A	0.04
C61A A124G	0.04
G88A	0.04
U102G U143A	0.84
U87C A124G	0.11
A42G U47A	1.19
U102A C146U	0.99
U73C G106A	1.7
G44A U100A	0.85
A6U A30U	0.58
U46A U52C	1.56
U12A A50C	0.57
A64U A138G	0.52
A24G U112C	1.41
U13C A67G	0.71
U87C C98A	0.09

Variant	self-cleavage
G35A A65G	0.05
U26G U87A	0
A2G A59G	0.39
C19U G58U	0.09
A31G A59C	1.53
G41A A79G	1
U130G	1.32
C3U U102A	1.1
C28U U130C	0.7
U20C A117C	1.64
U115C C145G	1.64
A67U C133U	0.1
A59G A64U	0.08
A30U U91C	0.56
A57G A67U	0.06
G58U A124G	0.01
U62C C131A	0.03
G4C G135A	0.56
C17U U112A	0.9
C28A G32C	0.96
U45C U73C	1.92
U62G C113U	0.1
G25A U81C	1.91
U91G A140G	0.02

Variant	self-cleavage
U52A U91A	0.63
G7A U45A	0.53
C16U U62C	0.09
G33A U62A	0.01
A31G A67G	0.5
A6U G41A	1.52
U13C U112G	1.13
U45A U112A	1.21
U5C A129U	1.05
A30G U87A	0.16
U73G	1.29
G88A U132C	0.09
A6U A117G	0.3
A6U A117U	1.53
A24U A69G	0.53
A42C A117G	0.77
G27A A138G	1.02
U52A C110G	1.15
A79G U85G	0.11
U15C C113U	1.71
A24U U45A	0.82
G127A C146U	1.43
U9C A107G	1.61
A22G C113U	0.92

Variant	self-cleavage
U108C U130G	1.02
A129C A140G	1.67
U26A A138U	0.78
G41C U100C	2.63
A92U A138U	0.53
A22G U115G	1.23
A31U G58A	0.05
G54A A78U	0.79
C63U C128U	0.23
A67U A77G	0.17
U26A U52A	0.81
A141G U143A	1.29
C28A A78G	0.61
A30G U143C	1.06
U12G A43U	0.81
C37A G40U	1.04
G40U U47A	1.86
U20G A140U	1.23
U96C A136U	0.15
U73C C90A	0.06
U15A A50U	1.43
U26C A94G	0.39
U29C U115C	1.75
U20A U112A	1.82

Variant	self-cleavage
G8C U143A	2.06
U20G G135A	0.98
U13G U104A	1.39
A121U G125A	1.23
G34U C90U	0
U119C G135A	2.34
A64U A117G	0.53
U15G C118U	0.97
U1C C76U	1.56
C123U U132A	1.13
U14C U47C	1.56
U102C A142C	1.73
A79U A107G	2.26
A107C U119C	2.19
G75A C123U	0.69
A94U U109C	0.22
G4A U96A	0.08
U20C G83A	1
A136G A138U	1.98
A31C U104A	2.67
U52G C118U	2.3
A30G C123A	1
U73A U108A	1.42
C110A G139A	1.17

Variant	self-cleavage
A43G A79U	1.8
U1C U96C	0.12
G4A A31G	0.6
A77U U119C	1.58
U52C U102C	1.14
U52A G75U	0.45
U62C U81A	0.04
A59G U96G	0
A30U A92G	0.11
U45A A78G	1.11
U26A A78G	0.74
A65U A78C	0.27
C37U U119A	0.99
A57U U108C	0.17
A30G A64U	0.65
U45G G106U	0.64
A43G G86A	0.06
U108C C113A	1.45
A50G U52G	0.18
U112A A129U	1.8
A31G U46C	1.67
C19U G72A	1.19
A50G U87G	0.11
U39A A50G	1.29

Variant	self-cleavage
A94G U130A	0.34
U47C A121U	1.52
C68U A129G	0.06
U14A	1.01
G40A A65G	0.04
U15A U62C	0
G4C A22G	0.99
U26A G40U	0.37
G72U C113U	1.15
G49U C71U	0.71
A43G U81C	1.32
U52A U115A	1.34
U13C A59U	0.86
U15C C98U	0.33
U15G A94U	0.58
G75C U119A	0.95
C19A U91C	0.46
U39G C123A	0.91
A69U U115C	0.07
A77U G97A	0.07
U15C G82U	1.9
U9G U47A	0.99
U29A U45G	0.38
C103U U115A	1.72

Variant	self-cleavage
U26C G105A	1.32
U73C A140G	1.63
G93A A138G	0.06
U20C A140C	2.05
U5A G32A	0.93
U39A C133U	1.41
U73G A142U	0.61
C3A A129G	0.88
U20G A136G	1.03
G25C	1.4
U15C U130G	1.49
A64G U112G	0
C71U C101A	1.14
U109A A140U	1.22
G7U G40A	1.47
U96C U104C	0.13
U52C C113A	0.99
U39A U134A	0.9
G21U	1.1
G48A U134A	0.83
G93U A141G	0.03
U9G U62C	0.16
G36U U104C	2.32
G74A G144A	1.09

Variant	self-cleavage
U73G U112G	0
U46A U91C	0.63
A69G U115A	0.25
A43G A140U	1.19
G89A U96C	0.07
A78G A79G	1.14
U26G G34A	0.93
G105U A136G	1.47
U104C A124U	1.76
U73A G139A	1.47
U9G G60A	0.09
C110A U119C	1.51
U12G U81C	0.86
A59U C123U	0.8
G33U A136U	1.27
U39C G144A	0.85
U39A U47C	1.55
U1C U132C	0.97
U87G U119G	0.3
U23C U91A	0.8
U46G A141G	1.16
U12C U62C	0.09
